Measurements as given in publication PMC6711812.

Molecular target: PpCESA3 (MbYTH bait and prey fusions) (Physcomitrella patens) (UniProt A9RGN5)
Assay: two-hybrid

colony growth as percent of the positive control: 20%
Substance: PpCESA3 (MbYTH bait and prey fusions) (from UniProt A9RGN5 1-1093) (natural protein)
